Data published in US20120316071A1 (published 2012).

Tests used:
[1] = molecular target: T1, Recombinant Human DLL4 (R&D Systems Cat#1506-D4/CF) (human, UniProt Q9NR61 27-524); test: MSD multispot ECL, antigen spotted, Fab 148.9 nM; blank spot 218
T1 construct: Bought recombinant protein; also called rHuman DLL4; delta-like protein 4

[2] = molecular target: T2, rHuman EGF R/Fc Chimera, CF (R&D Systems Cat#344-ER) (human, UniProt P00533 25-645); test: as above
T2 construct: Bought reagent; also called epidermal growth factor receptor

[3] = molecular target: T3, rHuman HGF R/c-MET/Fc Chimera, CF (R&D Systems Cat#358-MT/CF) (human, UniProt P08581 25-932); test: as above
T3 construct: Bought reagent; also called HGF R/Fc; hepatocyte growth factor receptor

[4] = molecular target: T4, rHuman Notch-1/Fc Chimera, CF (R&D Systems Cat#3647-TK) (human, UniProt P46531 19-526); test: as above
T4 construct: Bought reagent

[5] = molecular target: T5, rHuman CD44/Fc Chimera, CF (R&D Systems Cat#3660-CD) (human, UniProt P16070 21-220); test: as above
T5 construct: Bought reagent

[6] = molecular target: T6, rHuman Notch-1/Fc Chimera, CF (R&D Systems Cat#3647-TK) (human, UniProt P46531 19-526); test: MSD Multispot ECL, antigen spotted on plate, Fab at 7.5 nM; blank spot 217
T6 construct: Bought Fc chimera; Fc part of the bought chimera not given

[7] = molecular target: T7, rHuman P-Cadherin/Fc Chimera, CF (R&D Systems Cat#861-PC) (human, UniProt P22223 108-654); test: as above
T7 construct: Bought Fc chimera; Fc part of the bought chimera not given

[8] = molecular target: T8, Recombinant Human DLL4 (R&D Systems Cat#1506-D4/CF) (human, UniProt Q9NR61 27-524); test: Multispot ECL (MSD), antigen spotted on plate, Fab 62.5 nM; blank spot 268
T8 construct: Bought recombinant protein; also called rHuman DLL4; delta-like protein 4

[9] = molecular target: T9, rHuman Notch-1/Fc Chimera, CF (R&D Systems Cat#3647-TK) (human, UniProt P46531 19-526); test: as above
T9 construct: Bought recombinant protein; Fc part of the bought chimera not given

[10] = molecular target: T10, rHuman IGF-1 sR, CF (R&D Systems Cat#391-GR) (human, UniProt P08069 31-932); test: as above
T10 construct: Bought recombinant soluble receptor; also called insulin-like growth factor-1 soluble receptor

[11] = molecular target: T11, rHuman Erythropoietin R/Fc Chimera, CF (R&D Systems Cat#963-ER) (human, UniProt P19235 25-250); test: as above
T11 construct: Bought recombinant protein; also called EPO R/Fc; Epo R; Fc part of the bought chimera not given
T11 sequence (looked up): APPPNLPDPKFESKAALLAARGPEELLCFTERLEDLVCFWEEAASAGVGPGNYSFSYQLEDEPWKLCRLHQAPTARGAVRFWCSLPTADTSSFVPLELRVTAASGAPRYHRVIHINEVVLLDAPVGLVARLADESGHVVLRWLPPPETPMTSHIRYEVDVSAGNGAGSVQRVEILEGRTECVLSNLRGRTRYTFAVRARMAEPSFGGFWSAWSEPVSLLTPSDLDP

[12] = molecular target: T12, rHuman Erythropoietin R/Fc Chimera, CF (R&D Systems Cat#963-ER) (human, UniProt P19235 25-250); test: MSD Multispot ECL, antigen spotted on plate, Fab 2.0 nM; blank spot 316
T12 construct: Bought reagent; also called EPO R/Fc; EPO R; Fc part of the bought chimera not given
T12 sequence (looked up): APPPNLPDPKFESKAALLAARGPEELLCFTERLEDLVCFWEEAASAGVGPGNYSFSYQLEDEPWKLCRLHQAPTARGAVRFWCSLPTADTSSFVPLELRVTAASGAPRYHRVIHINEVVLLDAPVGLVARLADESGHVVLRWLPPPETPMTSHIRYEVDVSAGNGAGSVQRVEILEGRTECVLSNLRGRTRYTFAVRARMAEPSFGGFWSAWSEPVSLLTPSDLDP

[13] = molecular target: T13, Recombinant Human DLL4 (R&D Systems Cat#1506-D4/CF) (human, UniProt Q9NR61 27-529); test: as above
T13 construct: Bought recombinant protein; also called rHuman DLL4; delta-like protein 4

[14] = molecular target: T14, rHuman ErbB2/Fc Chimera, CF (R&D Systems Cat#1129-ER) (human, UniProt P04626 23-652); test: as above
T14 construct: Bought reagent; also called human epidermal growth factor 2 receptor; Fc part of the bought chimera not given

[15] = molecular target: T15, rHuman EGF R/Fc Chimera, CF (R&D Systems Cat#344-ER) (human, UniProt P00533 25-645); test: as above
T15 construct: Bought reagent; also called epidermal growth factor receptor; Fc part of the bought chimera not given

[16] = molecular target: T16, rHuman HGF R/c-MET/Fc Chimera, CF (R&D Systems Cat#358-MT/CF) (human, UniProt P08581 25-932); test: as above
T16 construct: Bought reagent; also called HGF R/Fc; hepatocyte growth factor receptor; Fc part of the bought chimera not given

[17] = molecular target: T17, rHuman Notch-1/Fc Chimera, CF (R&D Systems Cat#3647-TK) (human, UniProt P46531 19-526); test: as above
T17 construct: Bought reagent; Fc part of the bought chimera not given

[18] = molecular target: T18, rHuman CD44/Fc Chimera, CF (R&D Systems Cat#3660-CD) (human, UniProt P16070 21-220); test: as above
T18 construct: Bought reagent; Fc part of the bought chimera not given

[19] = molecular target: T19, rHuman IGF-1 sR, (IGF-1 sR), CF (R&D Systems Cat#391-GR) (human, UniProt P08069 31-932); test: as above
T19 construct: Bought soluble receptor; also called insulin-like growth factor-1 soluble receptor

B1: Fab VH1-46_IGHD6-6*01_IGHJ1*01 & L6_IGKJ1*01 (Fab, V domains shown)
VH: QVQLVQSGAEVKKPGASVKVSCKASGYTFTSYYMHWVRQAPGQGLEWMGIINPSGGSTSYAQKFQGRVTMTRDTSTSTVYMELSSLRSEDTAVYYCAREEYSSSSAEYFQHWGQGTLVTVSS
VL: not shown
notes: Only variable domains are tied to the molecule; Tested as a Fab made in E. coli: heavy chain from Plasmid A (CH1 constant region, His6 and Flag tags), kappa light chain from Plasmid C (kappa CL); also called parent Hit Fab against DLL4; VH1-46_IGHD6-6*01_IGHJ1*01 & L6_IGKJ1*01 (parental)
[1]
  ECL signal: 16300 ECL signal
[2]
  ECL signal: 290 ECL signal
[3]
  ECL signal: 205 ECL signal
[4]
  ECL signal: 375 ECL signal
[5]
  ECL signal: 348 ECL signal

B2: Fab VH6-1_IGHD3-3*01_IGHJ4*01 & V4-3_IGLJ4*01 (Fab, V domains shown)
VH: QVQLQQSGPGLVKPSQTLSLTCAISGDSVSSNSAAWNWIRQSPSRGLEWLGRTYYRSKWYNDYAVSVKSRITINPDTSKNQFSLQLNSVTPEDTAVYYCAREYYDFWSGYYTDYFDYWGQGTLVTVSS
VL: QPVLTQPTSLSASPGASARLTCTLRSGINLGSYRIFWYQQKPESPPRYLLSYYSDSSKHQGSGVPSRFSGSKDASSNAGILVISGLQSEDEADYYCMIWHSSASFVFGGGTQLIIL
notes: Tested as a purified germline Fab made in E. coli; The VH was cloned into plasmid A (CH1 constant region, His6 and Flag tags) and the lambda VL into plasmid E (lambda CL)
[6]
  ECL signal: 392
[7]
  ECL signal: 352

B3: Fab VH1-46_IGHD6-13*01_IGHJ4*01 & B3_IGKJ1*01 (Fab, V domains shown)
VH: QVQLVQSGAEVKKPGASVKVSCKASGYTFTSYYMHWVRQAPGQGLEWMGIINPSGGSTSYAQKFQGRVTMTRDTSTSTVYMELSSLRSEDTAVYYCAREGYSSSWYDYFDYWGQGTLVTVSS
VL: not shown
notes: Germline Fab made in E. coli; VH was cloned into Plasmid A (CH1, His6 and Flag tags) and the kappa VL into Plasmid C (kappa CL)
[8]
  ECL signal: 715
[9]
  ECL signal: 536
[10]
  ECL signal: 491
[11]
  ECL signal: 7750

B4: Fab VH1-8_IGHD2-2*01_IGHJ6*01 & L12_IGKJ1*01 (Fab, V domains shown)
VH: QVQLVQSGAEVKKPGASVKVSCKASGYTFTSYDINWVRQATGQGLEWMGWMNPNSGNTGYAQKFQGRVTMTRNTSISTAYMELSSLRSEDTAVYYCARGGYCSSTSCYADYYYYYGMDVWGQGTTVTVSS
VL: not shown
[12]
  ECL signal: 433
[13]
  ECL signal: 605
[14]
  ECL signal: 382
[15]
  ECL signal: 424
[16]
  ECL signal: 356
[17]
  ECL signal: 539
[18]
  ECL signal: 447
[19]
  ECL signal: 367
